Biological target: the molecule itself
Assay: cross-linking

B1: His6-tagged Hsp90β CTD (530–724) (domain or fragment)
chain: not shown
**Q.** Does B1 bind?
**A.** binds

— PMC6453127 (Biochimica et biophysica acta. General subjects, 2017)
